# From the RNAGym collection of RNA variant scans (doi:10.1073/pnas.2313332121)
# B1: TPR t1 (parent)
# chain: GACCAAUCUGCCCUCAGAGCUCGAGAACAUCUUCGGAUGCAGAGGAGGCAGGCUUCGGUGGCGCGAUAGCGCCAACGUCCUCAACCUCCAAUGCAUCCCACCACAUGAUGAUGCCUGAAGAGCCUUGGUUUUUUG
# Variants of: B1
# Assay: polymerase ribozyme fitness, log enrichment relative to wild type (log ratio); higher = more active; in vitro selection for triplet polymerase activity
# How it was run: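 A single round of triplicate in vitro selection, including frozen incubation at −7 °C, was applied to PCR-built, transcribed mutant libraries of each subunit of a heterodimeric triplet polymerase ribozyme. Illumina sequencing of input and output libraries retained genotypes with ≥10 input reads and ≥1 read per output. Fitness is the base-2 logarithm of genotype enrichment divided by wild-type enrichment, from inverse-variance-weighted replicate averages.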
row,Variant,polymerase ribozyme fitness (log ratio)
1,A29U G120U,-0.652
2,A27U C70U C73G A84G C89G C114G,-6.4
3,C31G A41U U55G G61U C86U G93C C102U G113C,-6.73
4,C28U G48A C53G C89U,-3.42
5,A27U U81C U132C,-4.09
6,A29G U116G,-2.77
7,A29U C53A U54C C76U C85A U131C,-3.17
8,C31U C53U,-4.91
9,A29G C53A A91G C98A A111G,-7
10,U30C G71U,-3.2
11,C31U C123A,-4.45
12,A27U A43U,-5.8
13,A27U A43G,-5.43
14,C31A G107C,-4.91
15,A27U C72U C85G A111U U132A,-4.04
16,A29G U38G A43U A90C G113U U125C,-3.96
17,C28G U87G,-2.01
18,A29G A41C A119U U133G,-2.94
19,A29G G35C G45A A100G U112C U116C,-7.03
20,C31U C34G C53G C70G A90C G120A G122A C124A,-7.98
21,C28A U54A G71U G110U,1.85
22,C28U C72G,-2.23
23,C28U C72U,-2.26
24,C31A U81C C124A,-5.14

row,Variant,polymerase ribozyme fitness (log ratio)
1,C28A C73A,-4.02
2,A29U A43U,-3.3
3,A27U G44C U96C,-4.49
4,A27U G71U G93U,-5.1
5,C28G C72A C102G G107A,-7.59
6,C31U C72G,-4.16
7,C31U C115A G120A,-4.78
8,A29C A37C C94U G120C,-4.25
9,A29G C104A,-2.84
10,A29G U55G G58A C72G U131C U133G,-2.75
11,U30A C104A,-6.42
12,A27U A29C,-4.78
13,A29G G63A C88A,-2.37
14,A27U U133A,-3.33
15,U30C U87G,-2.72
16,C31U C72U U112A,-3.81
17,A29U U32C G61C C70G C98A C114U,-5.96
18,C31U A119G,-3.71
19,C31U C49U C104U C115A,-4.23
20,A29U C73A C98A,-4.9
21,A29U C62G,-2.45
22,A29U G47U,-3.05
23,C28U C82A,-2.3
24,A27U G71A U96A U109A,-6.15

row,Variant,polymerase ribozyme fitness (log ratio)
1,C28U U87A,-2.17
2,A27U G47U,-2.07
3,A27U U38C A46U G48A G69U G110U C114U A119G,-6.11
4,C28U G63U G77A C94A U112C,-6.92
5,C28G A66G C123U,-3.76
6,U30G C34G C56A U109A A111C G117U U131C U132C,-6.83
7,C31A G36C G60C C72G C98A C99A C124U G128U,-7.42
8,A29G G42C,-2.66
9,A27U C40U C72G A100C,-7.09
10,A29U G48U C70G C123U,-5.55
11,C28G G63U,-4.26
12,C28G A41C,-4.58
13,U30C G42U,-3.85
14,C28U A41C C53G,-3.32
15,A29U C99G A119G G120C,-6.66
16,A29U C82A,-2.3
17,C28A C56U A121G,-2.77
18,U30A U129G,-4.77
19,C28U C56G C73A,-4.7
20,A29G U32C G42U G47C,-4.18
21,A29C U54C,-1.78
22,C28G A111G,-4.41
23,A29U C101A G110A A118G A121G,-4.96
24,A29G G45C U106A,-1.67

row,Variant,polymerase ribozyme fitness (log ratio)
1,A29C G61U A90G U116G,-5.84
2,C28U C40A G120C,-2.59
3,C28U A46G U129G,-2.5
4,C28U U133G,-1.83
5,C28G C53A C72A,-3.19
6,A29U G47A C86G,-2
7,U30C G42U C76G C85A G122A C123G,-4.17
8,A27U C114A,-3.53
9,C28U U55A G71C,-2.75
10,U30C A50G A74G C123U,-3.32
11,C31G G39A G107C U133G,-2.1
12,C28G G61A,-2.51
13,A29G C76A G120U,-1.97
14,A29G C72A,-1.27
15,C28U G60C A118G,-2.75
16,C28U G52C C56G,-3.11
17,C31G G47A C80G C115U U126A,-8
18,A29G A105U,-4.23
19,C28G C123U,-0.975
20,C28U G61A C64U A121C,-4.25
21,C28U C49G U129A,-5.15
22,A29G G39U C72G,-3.09
23,C31G G57A G58C G63A U112C,-7.16
24,A29C A37G G47U C72U C101U G110U,-6.59

row,Variant,polymerase ribozyme fitness (log ratio)
1,C31U C82A,-5.41
2,C28A G47A C79U G110C,-2.69
3,C28A C86U A111U,-2.22
4,U30C G39A G57U G69U U130G,-5.29
5,C31U C49G G63U A75C,-6.11
6,C28U G71A G77A C114A,-6.98
7,C31A C72G,-5.43
8,C28G G110U C124U,-0.355
9,A27U A83U C86U U129C,-3.64
10,A29G C72G C80G A105C C123G,-7.14
11,A29G C73A,-1.67
12,C28U C72U C82U,-1.52
13,A27U C73A,-3.09
14,U30G A43C C104A A111U,-6.22
15,C28G U32C C56G G117A,-5.54
16,A29U G48A A111C,-2.11
17,A27U G61A,-2.77
18,A27U,-2.89
19,A29G C56G,-1.53
20,A27U C101A,-4.18
21,A27U G60U G128A,-4.65
22,A29G A37C,-2.19
23,C28U G71C C124U,-2.51
24,A27G U106A,-2.32

row,Variant,polymerase ribozyme fitness (log ratio)
1,C28U G47U C97U C101U A103G G117C,-7.85
2,A29G C76U G77C,-2.58
3,C28A C56U,-2.94
4,C28G G63A G93U C114A A118C,-7.47
5,C28G G60U,-2.56
6,C28U C62U,-2.6
7,U30C G71U U87C,-4.19
8,C31U A46U C85U,-7.42
9,C28U G45A C49G C72U G122A,-4.63
10,C31G C62U A84G U87A G93U G120U,-6.9
11,C31G A50C U112A,-6.45
12,A29C C70U,-2.29
13,C28G G48A A83C A84C,-3.22
14,A29U C73U C98U A111C,-3.36
15,A27U C86G,-3.66
16,A27U C86A,-3.77
17,A27U C53A C56A U131G,-2.89
18,C31A U54C U96A A111G,-5.95
19,A29C C56G C82A U87C C89A A108G C124A,-7.12
20,C28U C72G G110C,-1.52
21,A27U C62G,-5.76
22,A29U G44U G60A G113U A118G U131G,-5.8
23,C28U G93A,-1.92
24,A29G A111C,-0.114

row,Variant,polymerase ribozyme fitness (log ratio)
1,A27U G39U C72A,-3.78
2,U30G C115A,-5.72
3,C28U C104U,-2.27
4,C28U G63C U78C U92G C99G A103U G110A,-4.52
5,A27U A105U,-4.58
6,A29U G48U C73G U112A,-0.987
7,C28A G39U A43G C56U G61U C64G G120C,-6.64
8,A29C G69U C99U,-3.95
9,C28U G60A C72G G110C C115G G120U,-7.22
10,A29G G36A G69A G71U C104U,-6.16
11,C28G C82U,-2.1
12,C28A C72G,-2.92
13,A27U C73U A75G,-3.03
14,A29G A118U,-0.684
15,C31U A66C U78G U106A C123A,-2.21
16,A27U C49U,-3.64
17,A29G A50U C73A,-2.36
18,A27U A121C,-0.527
19,A29G C56U C101G,-6.01
20,A27U C73A U129C,-3.27
21,C31A C73U,-5.76
22,U30G C49G C80G G117C,-7.34
23,A29G A91G G113A,-2.3
